The values below come from the array DNA melting data of Ke et al..

This series is described as follows: melting temperature; melt of duplexes. Conditions: sodium 0.0675 M; strand 1 µM.
What is called Tm is the temperature at the midpoint of the melting transition. For “CGACGTGCTGCATGTGCTG+CAGCACATCTTGCACGTCG ((((((((...((((((((+))))))))...))))))))”, the Tm came to 50.1 °C.

Regarding “CGACGTGCTCGATGTGCTG+CAGCACATTTGGCACGTCG ((((((((...((((((((+))))))))...))))))))”, the Tm came out at 50.3 °C.

“CGACGTGCGGCATGTGCTG+CAGCACATGCGGCACGTCG ((((((((.((((((((((+)))))))))).))))))))”: the Tm turned out to be 61.7 °C.

For the substance “CGACGTGCCGTATGTGCTG+CAGCACATGTTGCACGTCG ((((((((...((((((((+))))))))...))))))))”, the Tm was 48.3 °C.

Regarding “CGACGTGCGAAATGTGCTG+CAGCACATAGGGCACGTCG ((((((((...((((((((+))))))))...))))))))”, the Tm was 49.9 °C.

As for “CGACGTGCCTAATGTGCTG+CAGCACATAACGCACGTCG ((((((((.(.((((((((+)))))))).).))))))))”, the Tm came out at 48.2 °C.

“CGACGTGCGTGATGTGCTG+CAGCACATCGCGCACGTCG (((((((((.(((((((((+))))))))).)))))))))”: the Tm amounted to 63.6 °C.

For the substance “CGACGTGCAACATGTGCTG+CAGCACATAGAGCACGTCG ((((((((...((((((((+))))))))...))))))))”, the Tm was 48.9 °C.

As to “CGACGTGCTGCATGTGCTG+CAGCACATTAGGCACGTCG ((((((((...((((((((+))))))))...))))))))”, the Tm was found to be 50.4 °C.

For “CGACGTGCAGGATGTGCTG+CAGCACATCCAGCACGTCG ((((((((.((((((((((+)))))))))).))))))))”, the Tm came out at 59.8 °C.

Take “CGACGTGCATGATGTGCTG+CAGCACATGACGCACGTCG ((((((((.(.((((((((+)))))))).).))))))))”: the Tm came to 46.2 °C.

Take “CGACGTGCAGGATGTGCTG+CAGCACATGACGCACGTCG ((((((((...((((((((+))))))))...))))))))”: the Tm turned out to be 47.3 °C.

“CGACGTGCGCGATGTGCTG+CAGCACATGATGCACGTCG ((((((((...((((((((+))))))))...))))))))”: the Tm is 51 °C.

For the substance “CGACGTGCGTCATGTGCTG+CAGCACATTGTGCACGTCG ((((((((...((((((((+))))))))...))))))))”, the Tm was 46.3 °C.

In the case of “CGACGTGCTCCATGTGCTG+CAGCACATTATGCACGTCG ((((((((...((((((((+))))))))...))))))))”, the Tm came out at 47.6 °C.

As for “CGACGTGCACCATGTGCTG+CAGCACATAGCGCACGTCG ((((((((.(.((((((((+)))))))).).))))))))”, the Tm was 46.1 °C.

In the case of “CGACGTGCTGAATGTGCTG+CAGCACATGTAGCACGTCG (((((((((..((((((((+))))))))..)))))))))”, the Tm turned out to be 54.3 °C.

Regarding “CGACGTGCACAATGTGCTG+CAGCACATTCGGCACGTCG ((((((((..(((((((((+)))))))))..))))))))”, the Tm is 49.7 °C.

Take “CGACGTGCAGTATGTGCTG+CAGCACATCTCGCACGTCG ((((((((...((((((((+))))))))...))))))))”: the Tm turned out to be 50.1 °C.

For the substance “CGACGTGCGGCATGTGCTG+CAGCACATCGGGCACGTCG ((((((((...((((((((+))))))))...))))))))”, the Tm was determined as 49.6 °C.

With “CGACGTGCCAAATGTGCTG+CAGCACATAGAGCACGTCG ((((((((...((((((((+))))))))...))))))))”, the Tm was found to be 49.1 °C.

For “CGACGTGCACAATGTGCTG+CAGCACATAGGGCACGTCG ((((((((.(.((((((((+)))))))).).))))))))”, the Tm came to 53 °C.

Consider “CGACGTGCCGTATGTGCTG+CAGCACATCCTGCACGTCG ((((((((.(.((((((((+)))))))).).))))))))”, for which the Tm is 49.7 °C.

In the case of “CGACGTGCATTATGTGCTG+CAGCACATTACGCACGTCG ((((((((.(.((((((((+)))))))).).))))))))”, the Tm stood at 49.3 °C.

For “CGACGTGCTTGATGTGCTG+CAGCACATGTAGCACGTCG (((((((((..((((((((+))))))))..)))))))))”, the Tm turned out to be 51.7 °C.

For the substance “CGACGTGCTCGATGTGCTG+CAGCACATAAAGCACGTCG (((((((((..((((((((+))))))))..)))))))))”, the Tm was determined as 52.7 °C.
